In the test the target is T1, Fn F4-5 (Homo sapiens, UniProt P02751).
T1 construct: amino-acids NH2—I182-V276-COOH of Fn F4-5; made in house; host or cells: Saccharomyces cerevisiae
Put plainly: Biacore surface plasmon resonance, binding to immobilized Fn F4-5. Here is the method:
Binding of cross-β structure containing peptides/proteins was studied using surface plasmon resonance technology with a Biacore 2000 apparatus (Biacore AB, Uppsala, Sweden). A standardized amine coupling procedure was used to couple proteins with F domains to a CM5 chip (Biacore AB, Uppsala, Sweden). First, the dextran surface of the chips was activated by a 35 μl injection with a 1:1 mixture of 0.1 M N-hydroxysuccinimide (NHS) and 0.4 M N-ethyl-N′-(dimethylaminopropyl)carbodiimide (EDC) at a flow rate of 5 μl min.^−1. Then, the proteins were covalently coupled to the activated dextran surface. Remaining activated groups in each of the four flow channels were blocked by injection of 35 μl of 1 M ethanolamine hydrochloride pH 8.5. EDC, NHS and ethanolamine hydrochloride were obtained from Biacore. On one chip, on channels 1 to 4, buffer (reference channel), the soluble extracellular part of receptor for advanced glycation endproducts (sRAGE), tPA and K2P-tPA were immobilized. […] Binding of albumin-AGE was determined with a solution of 3.9 μg ml^−1 albumin-AGE in running buffer. albumin-AGE was filtered on a Millex-GV 0.22 μm filter unit (Millipore). […] Binding of Hb-AGE was also tested after centrifugation for 10 min. at 16,000*g alternative to filtration. tPA activation before and after filtration was assessed with a Plg-activation assay. […]
(Surface plasmon resonance follows binding to a sensor surface in real time, without labels.)

T1 sequence (P02751 182-276): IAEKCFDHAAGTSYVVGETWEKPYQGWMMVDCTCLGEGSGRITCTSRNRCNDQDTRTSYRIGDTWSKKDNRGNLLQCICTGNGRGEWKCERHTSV

B1: recombinant β2GPI: recombinant human β2-glycoprotein I made using insect cells (protein)
chain: GRTCPKPDDLPFSTVVPLKTFYEPGEEITYSCKPGYVSRGGMRKFICPLTGLWPINTLKCTPRVCPFAGILENGAVRYTTFEYPNTISFSCNTGFYLNGADSAKCTEEGKWSPELPVCAPIICPPPSIPTFATLRVYKPSAGNNSLYRDTAVFECLPQHAMFGNDTITCTTHGNWTKLPECREVKCPFPSRPDNGFVNYPAKPTLYYKDKATFGCHDGYSLDGPEEIECTKLGNWSAMPSCKASCKVPVKKATVVYQGERVKIQEKFKNGMLHGDKVSFFCKNKEKKCSYTEDAQCIDGTIEVPKCFKEHSSLAFWKTDASDVKPC
As for B1, under “Biacore, native Hb at 25 nM”, the “binding to the Fn F4-5 doublet” value was “bound”. Further, the Kd (immobilized Fn F4-5, Biacore CM5 chip, read-out: concentration of ligand that results in half maximum binding to Fn F4-5) was determined as 165 nM.

(Values after patent US20080220446A1, “Method for Detecting and/or Removing Protein and/or Peptide Comprising a Cross-Beta Structure From an Aqueous Solution Comprising a Protein” (priority 2005, published 2008).)
